Earlier results on 1 substance are cited in publication PMC11402941.

The target of data set [1] is PSGL-1 (Homo sapiens) (UniProt Q14242).
For data set [2], the target named is VSIG3 (Homo sapiens) (UniProt Q5DX21).
Chain of UniProt Q5DX21 (Q5DX21 23-241): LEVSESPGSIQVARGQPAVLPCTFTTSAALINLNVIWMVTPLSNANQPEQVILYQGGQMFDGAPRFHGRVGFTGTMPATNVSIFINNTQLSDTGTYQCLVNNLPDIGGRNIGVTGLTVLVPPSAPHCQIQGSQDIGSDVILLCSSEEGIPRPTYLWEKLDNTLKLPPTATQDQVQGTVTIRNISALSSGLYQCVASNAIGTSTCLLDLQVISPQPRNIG

Chain of UniProt Q14242 (Q14242 42-320): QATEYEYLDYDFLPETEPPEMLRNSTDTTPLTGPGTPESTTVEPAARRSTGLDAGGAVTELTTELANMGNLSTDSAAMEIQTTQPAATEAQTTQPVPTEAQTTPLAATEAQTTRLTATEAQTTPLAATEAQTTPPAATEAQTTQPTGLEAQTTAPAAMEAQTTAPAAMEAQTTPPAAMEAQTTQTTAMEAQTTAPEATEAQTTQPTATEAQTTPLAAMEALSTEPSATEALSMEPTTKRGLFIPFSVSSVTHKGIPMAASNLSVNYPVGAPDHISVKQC

Regarding VISTA (from UniProt Q9H7M9), the Kd (as a rule, a measure of binding affinity in units of concentration) was 4 nM in data set [1] and 80 nM in data set [2].
